Laboratory results from publication PMC11974786 (bioRxiv, 2025).

What was measured:
[1] = biological target: OptS from Klebsiella pneumoniae strain KP67 (Klebsiella pneumoniae strain KP67); experiment: SEC
[2] = biological target: OptS from Klebsiella pneumoniae strain KP67 (Klebsiella pneumoniae strain KP67); experiment: SEC; remark: listed apart in the source
[3] = biological target: OptS from Klebsiella pneumoniae strain KP67 (Klebsiella pneumoniae strain KP67); experiment: crystal structure
KpOptS = biological target: T1, KpOptS (Klebsiella pneumoniae, UniProt A0A2G9LI54); experiment: HPLC and LC-MS product analysis; format: biochemical; conditions: 100 μM OptS, 1 mM MnCl2, 10 mM MgSO4, pH 7.4, 100 mM NaCl
T1 sequence (A0A2G9LI54 1-119): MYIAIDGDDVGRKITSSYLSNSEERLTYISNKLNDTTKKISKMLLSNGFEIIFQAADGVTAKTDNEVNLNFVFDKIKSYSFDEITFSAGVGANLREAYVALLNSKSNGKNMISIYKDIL

OptS from Klebsiella pneumoniae strain KP67 (enzyme)
stoichiometry N [1]: > 3
stoichiometry N [2]: 4
stoichiometry N [3]: 4

Nc1ncnc2c1ncn2[C@@H]1O[C@H](COP(=O)(O)OP(=O)(O)OP(=O)(O)O)[C@@H](O)[C@H]1O [ATP]
HPLC and LC-MS product analysis (KpOptS): The largest abundance product observed was derived from ATP
